From the nanobody polyreactivity screen of Harvey et al. (2022)

Experiment: yeast display, Sf9 membrane polyspecificity reagent, FACS + sequencing; frameworks hold sequencing errors
Summary of the method: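 Nanobodies from a synthetic yeast display library (Saccharomyces cerevisiae BJ5465), induced 36–48 hours with galactose, were stained 1 hour at 4 °C with 10% biotinylated, detergent-solubilized Sf9 membrane reagent, enriched on streptavidin microbeads, then FACS-sorted. Anti-HA (expression) and streptavidin (reagent binding) fluorescence set low and high (top ~1%) gates. Polyreactivity labels come from the gate of origin. Genes were colony-PCR amplified, MiSeq 2 × 250 sequenced and filtered by CDR length.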
In the case of “QVQLVESGGGLVQAGGSLRLSCAASGTTFYYYAMGWYRQAPGKEREFVAAIRFSGSRTYYADSVKGRFPISRDNAKNTVYLQMNSLIPEDTAVYYCARATLPSVSYYRKLFDYWGQGTHVTVSS”, the “polyreactivity (PSR sort gate)” value is reported as “high polyreactivity”.
In the case of “QVQLVESGGGLVQAGGSLRLSCAASGTTIETYASGWYRQAPGKERELVATITSGGSTYYAYSVKGRFTISRDTAKITVYLQMNSLKPEDTSVYYCAAGRYGGKHVWYYYWGQGTQVTVSS”, the “polyreactivity (PSR sort gate)” value is reported as “high polyreactivity”.
In the case of “QVQLVESGGGLVQAGGSLRLSCAASGTYKYYAMGWYRHAPGKERELVAATNRGGSTNYADSVKGRFTISRDNAKNTVYLQMNSLKPEDTAVYYCAAERWYVRGRHYYYWGQGTQVTVSS”, the “polyreactivity (PSR sort gate)” value is reported as “high polyreactivity”.
With “QVQLVESGGGLVQAGGSLRLSCAASGTYTNAMGWYRQAPGKERELVAAITSSGGSTYYADSVKGRFTISRDNAKNTVYLQMNSLKPEDTAVYYCAKPGVYEVSYTYGYWGQGTQVTVSS” the “polyreactivity (PSR sort gate)” value was “low polyreactivity”.
In the case of “QVQLVESGGGLVQAGGSLRLSCAASGVIFGAYAMGWYRQAPGKERELVAAISSRGTSTYYADSVKGRFTISRDNAKNTVYLQMNSLKPEDTAVYYCNVYYIPLRRYDYWGQGTQVTVSS”, the “polyreactivity (PSR sort gate)” value is reported as “high polyreactivity”.
With “QVQLVESGGGLVQAGGSLRLSCAASGVIFKPSAMGWYRQAPGKERELVASISTGARTYYADSVKGRFTISRDTAKNTVYLQLNSLKPEDTAVYYCAAAYSRWITRYDYWGQGTQVTVSS” the “polyreactivity (PSR sort gate)” value was “high polyreactivity”.
With “QVQLVESGGGLVQAGGSLRLSCAASGVIFYFNALGWYRQAPGKERELVAAISGGDNTYYADSVKGRFTISRDNAKNTVYLQMNSLKPEDTAVYYCAAKYRYGQNGYYLYGYWGQGTQVTVSS” the “polyreactivity (PSR sort gate)” value was “low polyreactivity”.
For “QVQLVESGGGLVQAGGSLRLSCAASGVNAMGWYRPAPGKEREFVAAITSIGGSTYYADSVKGRFTISRDNAKNTVYLQMNSLKPEDTAVYYCNTDRGPVKVSPLYVSWGQGTQVTLSS”, the “polyreactivity (PSR sort gate)” value was “low polyreactivity”.
For “QVQLVESGGGLVQAGGSLRLSCAASGYAKGWYRQAPGKESELDAAITSNGGRTYYADSVKGRFTISRDNAKNTVYIQMNSLKPEDTAVYYCATRSGPHYKTRWTYDLGYWGQGSQVTVSS”, the “polyreactivity (PSR sort gate)” value was “low polyreactivity”.
For “QVQLVESGGGLVQAGGSLRLSCAASGYAMGWYRQAPGKERELVAAITRRGGSTYYADSVKGRFTISRDNAKNTVYLQMNSLKPEDTAVYYCAADNPSYNLWYGYWGQGTQVTVSS”, the “polyreactivity (PSR sort gate)” value was “low polyreactivity”.
For “QVQLVESGGGLVQAGGSLRLSCAASGYARGWYRQAPGKERELVAAITSGGSTNYADSVKGRFTISRDNAKNTVYLQMNSLKPEDTAVYYCAAAYSLYGHRYDYWGQGTQVTVSS”, the “polyreactivity (PSR sort gate)” value was “low polyreactivity”.
For “QVQLVESGGGLVQAGGSLRLSCAASGYGYVMGWYRQAPGKERELVAAISRSGGSTYYADSVKGRFTISRDNAKNTVYFQMNSLIPEDTAVYDCAARWPGAYHDYGYWGQVTQVTVSS”, the “polyreactivity (PSR sort gate)” value was “high polyreactivity”.
In the case of “QVQLVESGGGLVQAGGSLRLSCAASGYIFALNAMGWYRPAPGKEWELVAAINDSGDSTYYADSVKGRFTISRDNAKNTVYLQMNSLKPEDTAVYYCAAGFSYEWCYPTFDYWGQGTQVTVSS”, the “polyreactivity (PSR sort gate)” value is reported as “low polyreactivity”.
With “QVQLVESGGGLVQAGGSLRLSCAASGYIFASYAMGWYRPAPGKERELVAAISIGGNTNYADSVKGRFTISRDNAKNTVYLQMNSLKPEDTAVYYCAAKTPRYRYGYWRQGTQVTVSS” the “polyreactivity (PSR sort gate)” value was “low polyreactivity”.
With “QVQLVESGGGLVQAGGSLRLSCAASGYIFATNAMGWYRQSPGKERELVAAITRSGGRTYYADSVKGRFTISRDNAKNTVYLQMNSLKPEDTAVYYCAAARPTNIYYYWGQGTQVTVSS” the “polyreactivity (PSR sort gate)” value was “high polyreactivity”.
For “QVQLVESGGGLVQAGGSLRLSCAASGYIFATYAMGWYRQAPGKERELVAAISWSGGRTYYADSVKGRFTISRDNAKNTVYLQMNGLKPEVTAVYYCAAQSYSRMDYWGQGTQVTVSS”, the “polyreactivity (PSR sort gate)” value was “high polyreactivity”.
For “QVQLVESGGGLVQAGGSLRLSCAASGYIFAVYAMGWYRQAPGKEREFVAVITWRGGSTYYADSVKGRFTISRDNAKNTVYLQMNSLKPEDTAVYYCAADVYAQYDYWGQGTQVTVSS”, the “polyreactivity (PSR sort gate)” value was “high polyreactivity”.
For “QVQLVESGGGLVQAGGSLRLSCAASGYIFDGNAMGWYRQAPGKERELVAPITWTGGSTYYADSVKGRFTISRDNAKNTVYLQMNSLKPEDTAVYYCAKPYDPGPYHSSYRATDDYWGQGTQVTVSS”, the “polyreactivity (PSR sort gate)” value was “low polyreactivity”.
In the case of “QVQLVESGGGLVQAGGSLRLSCAASGYIFDIYAMGWYRQAPGKERELVAVITRSGGGTYYADSVKGRFTISRDNAKNTVYFQMNSLKPEDTAVYYCAAESYVYGGSDYVYWGQGTEVTVSS”, the “polyreactivity (PSR sort gate)” value is reported as “low polyreactivity”.
For “QVQLVESGGGLVQAGGSLRLSCAASGYIFDRNAMGWYRQAPGKERELLAAITKRGGITYYADSVKGRFTISRDNAKNTVYLQMNSLKPEDTAVYYCAADIGYYVYNDYDYWGQGTQVTVSS”, the “polyreactivity (PSR sort gate)” value was “low polyreactivity”.
For “QVQLVESGGGLVQAGGSLRLSCAASGYIFDVYDMGWYRQAPGKERELVAAITDYADSVKGRFTISRDNAKNTVYLQMNSLKPEDTAVYYCAADTDVLKGTTGFEYWGQGTQVTVSS”, the “polyreactivity (PSR sort gate)” value was “low polyreactivity”.
For “QVQLVESGGGLVQAGGSLRLSCAASGYIFDWNAMGCYRQAPGKERELVAAISSGGRTNYADSVKGRFTISRDNAKNTVYLQMNSLKPEDTAVYYCNTGPYTFDSPEYYYWGQGTQVTVSS”, the “polyreactivity (PSR sort gate)” value was “low polyreactivity”.
With “QVQLVESGGGLVQAGGSLRLSCAASGYIFDYYAMGWYRQAPGKERELVAAISSSGGTTYYADSVKGRFTISRDNAKNTVYLQMNSLKPEDTEVYYCAARKSRWHRGYYYWGQGTQVTVSS” the “polyreactivity (PSR sort gate)” value was “high polyreactivity”.
For “QVQLVESGGGLVQAGGSLRLSCAASGYIFDYYAMGWYRQAPGKERELVAGISRRGGSTYYADSVKGRFTISRDNAKNTVYLQMNSLKPEDTAVYYCAGLGDDATSYGYWGQGTQVTVSS”, the “polyreactivity (PSR sort gate)” value was “high polyreactivity”.
In the case of “QVQLVESGGGLVQAGGSLRLSCAASGYIFENYALGWYRQAPGKERELVAALSTRGGSTYYADSVKGRFTISRDNAKNTVYLQMNSLKPEDTAVYYCAAADSTGYYYWGQGTQVTVSS”, the “polyreactivity (PSR sort gate)” value is reported as “high polyreactivity”.
For “QVQLVESGGGLVQAGGSLRLSCAASGYIFFTYTMGWYRQAPGKERELVAAINGSVGSTYYADSVKGRFTISRDNAKNTVYLQMNSLKPEDTAVYYCAAEVVDFGYSYEWEDDYWGQGTQVTVSS”, the “polyreactivity (PSR sort gate)” value was “high polyreactivity”.
For “QVQLVESGGGLVQAGGSLRLSCAASGYIFGAYAMGWYRPAPGKERELVAGITASGDSTYYADSVKGRFTISRDNAKNTVYLQMNSLKPEDTAVYYCNAQPDIGLYDRQWKEPYEYWGQGTQVTVSS”, the “polyreactivity (PSR sort gate)” value was “low polyreactivity”.
In the case of “QVQLVESGGGLVQAGGSLRLSCAASGYIFGDYVMGWYRQAPGKERELVAAISSSGDTNYADSVKGRFTISRDNAKNTVYLQMNSLKPEDTAVYYCAAVDWIGRVHGKPWGGDYWGQGTQVTVSS”, the “polyreactivity (PSR sort gate)” value is reported as “low polyreactivity”.
In the case of “QVQLVESGGGLVQAGGSLRLSCAASGYIFGNYAMGWYRQAPGKERELVADITWRGDSTYADSVKGRFTISRDNAKKTVYLQMNSLKPEDTAVYYCAADIATEYWYTGYDHWGQGTQVTVSS”, the “polyreactivity (PSR sort gate)” value is reported as “low polyreactivity”.
In the case of “QVQLVESGGGLVQAGGSLRLSCAASGYIFGTYGMGWYRQAPGKERELVAGISRSGTSTYYADSVKGRFTISRDNAKNTVYLQMNSLKPEDTAVYYCAAVSRTRYEYWGQGTQVTVSS”, the “polyreactivity (PSR sort gate)” value is reported as “high polyreactivity”.
In the case of “QVQLVESGGGLVQAGGSLRLSCAASGYIFGWYAMGWYRQAPGKERELVATIDWSGDSTYYADSVKGRFTISRDNAKNTVYLQMNSLKPEDTAVYYCSAGVGYITYYGYDYWGQGTQVTVSS”, the “polyreactivity (PSR sort gate)” value is reported as “low polyreactivity”.
In the case of “QVQLVESGGGLVQAGGSLRLSCAASGYIFGYVMGWYRQAPGKERELVAAITYSSGNTYYADSVKGRFTISRDNAKNTVYLQMNSLKPEDTAVYYCAKQAYYKGRLAYGYWGQGTQVTVSS”, the “polyreactivity (PSR sort gate)” value is reported as “high polyreactivity”.
With “QVQLVESGGGLVQAGGSLRLSCAASGYIFHRYAMGWYRQAPGKEREFVAAIRWSGGSTYYADSVKGRFTISRDNAKNTVYLQMNSLKPEDTAVYYCAADKYVLGYYYGQYDYWGQGTQVTVSS” the “polyreactivity (PSR sort gate)” value was “low polyreactivity”.
In the case of “QVQLVESGGGLVQAGGSLRLSCAASGYIFKYYAMGWYRQAPGKERELVAAISRSGDSTYYADSVKGRFTISRDNAKNTVYLQMNSLKPEATAVYYCKARYWHGPTGSDYWGQGTQVTVSS”, the “polyreactivity (PSR sort gate)” value is reported as “high polyreactivity”.
With “QVQLVESGGGLVQAGGSLRLSCAASGYIFKYYAMGWYRQAPGKERELVATINYSGGGTYYADSVKGRFTISRDNAKNTVYLQMNRLKPEDTAVYYCAAREKYISYSYYYWGQCTQVTVSS” the “polyreactivity (PSR sort gate)” value was “high polyreactivity”.
In the case of “QVQLVESGGGLVQAGGSLRLSCAASGYIFLANAMGWYRQAPGKERELVAAITSGGGGTYYADSVKGRFTISRDNAKNTVYLQMNSLKPEDTAVYYCAADHGRDGSSFEYWGQGTQVTVSS”, the “polyreactivity (PSR sort gate)” value is reported as “low polyreactivity”.
With “QVQLVESGGGLVQAGGSLRLSCAASGYIFLGNAMGWYRQAPGKERELVAAINSSGGSTYYADSVKGRFTISRDNAKNTVYLQMNSLKPEDTAVYYCATSDRDGIYVVPHMDYWGQGTQVTVSS” the “polyreactivity (PSR sort gate)” value was “low polyreactivity”.
In the case of “QVQLVESGGGLVQAGGSLRLSCAASGYIFLPYAMGWYRQAPGKERELVAAITSVGRTYYADSVKGRFTISRDNAKNTVYLQMNSLKPEDTAVYYCAAPRGHGKYYSWGQGTQVTVSS”, the “polyreactivity (PSR sort gate)” value is reported as “high polyreactivity”.
In the case of “QVQLVESGGGLVQAGGSLRLSCAASGYIFLVYAMGRSRHAPRKERELVASITRGTRTYYADSVKGRFTISRDNAKNTVYLQMNILKPEDSAVYYCAASQNIRDWFRFGYGSWGQGTQVTVSS”, the “polyreactivity (PSR sort gate)” value is reported as “low polyreactivity”.
With “QVQLVESGGGLVQAGGSLRLSCAASGYIFNGNAMGWYRQAPGKERELVATITRRGGSTYYADSVKGRFTISRDNAKNTVYLQMNSLKPEDTAVYYCNKRDYSGDYYGPLDYWGQGTQVTVSS” the “polyreactivity (PSR sort gate)” value was “high polyreactivity”.
For “QVQLVESGGGLVQAGGSLRLSCAASGYIFPRYAMGWYRQAPGKERELVAAITGSGGSTYYADSVKGRFTISRDNAKNTVYLQMNSLKPEDTAVYYCNTVYYRSGSQRLDYWGQGTQVTVSS”, the “polyreactivity (PSR sort gate)” value was “high polyreactivity”.
For “QVQLVESGGGLVQAGGSLRLSCAASGYIFPYNAMGWYRQAPGKERELVATITWTGGSKYYADSVKGRFTISRDNAKNTVYLQMNSLKPEDTAVYDCADDLSIRYDHEYGYWGQGTQVTVSS”, the “polyreactivity (PSR sort gate)” value was “low polyreactivity”.
With “QVQLVESGGGLVQAGGSLRLSCAASGYIFRGYVMGWYRQAPGTERELVAGISRSGSSTYYADSVKGRFTISRDNAKNNVYLQMNSLKPEDTAVYYCAAVRSGIEYGYWGQGTQVTVSS” the “polyreactivity (PSR sort gate)” value was “high polyreactivity”.
